In patent publication US9758785B2, “miR-520 microRNAs sensitize cancers to platinum-based therapy” (BAYLOR COLLEGE OF MEDICINE, priority 2012, dated 2017):
“Also recorded” adds a separate entry of the source.

Tests used:
OVCAR8 cells [1] = test: Viability (MTS) across cisplatin concentrations, stable microRNA clones; format: cell-based, human; conditions: OVCAR8 stable clones vs non-silencing mimic, cisplatin <5 μg/mL
Procedure: (§1) Established ovarian cancer cell lines were obtained from the ATCC (OVCAR8, OVCAR5) and the University of Texas M.D. Anderson Cancer Center (HEYA8, SKOV3ip1). All cell lines were maintained at 37° C. in RPMI 1640 media (Invitrogen, Carlsbad, Calif.) supplemented with 10% fetal bovine serums (Hyclone, Logan, Utah) and 1% penicillin/streptomycin (Gibco, Carlsbad, Calif.). MicroRNA mimics and mimic controls (Dharmacon, Lafayette, Colo.) were transiently transfected into actively growing cultures using Lipofectamine 2000 (Invitrogen, Carlsbad, Calif.). After a 24-hour incubation, transfected cultures were washed, passaged and seeded into 96 well plates. Proliferation and apoptosis were measured at 72, 96 and 120 hours after transfection using standard assays (Cell Titer 96 Aqueous One; Caspase Glo 3/7; Promega, Madison, Wis.). pLemiR expression vectors (Open Biosystems/Thermo, Huntsville, Ala.) were prepared according to manufacturer's instructions and transfected into cells using Fugene 6 (Roche, Indianapolis, Ind.). Following transfection, stable clones were selected using puromycin (Invitrogen) at doses optimized for each line. Rates of proliferation and apoptosis were examined in stable transfectants 24, 48, 72 and 96 hours after selected cells had been passaged and dispensed into 96 well plates. Viability was assessed across a clinically relevant range of cisplatin concentrations using an MTS assay (Promega). Cisplatin was obtained from Teva Pharmaceuticals (Irvine, Calif.).
(§2) For this reason, the inventors created clones of OVCAR8 and SKOV3ip1 ovarian cancer cell lines stably expressing either miR-520h (n=3) and miR-520a (n=3). […] To assess the impact of these microRNAs on cisplatin-induced cell killing, the inventors examined the viability of OVCAR8 and SKOV3ip1 cells stably expressing either microRNA incubated with clinically relevant concentrations of cisplatin. […] It should be noted that SKOV3ip1 cells tolerated only very low levels of miR-520a expression. The impact of cisplatin treatment on rates of apoptosis differed dramatically between the two cell lines.

SKOV3ip1 cells [2] = test: as above; format: cell-based, human; conditions: SKOV3ip1 stable clones vs non-silencing mimic
Procedure: as §1, §2

UPSC Ark1 cells = test: Cisplatin dose response in uterine cancer cells stably transfected with lentiviral vector; format: cell-based; conditions: UPSC Ark1 cells expressing miR-520h vs non-targeting miRNA control
Procedure: UPSC Ark1 cells stably transfected with lentiviral vector driving the expression of either miR-520h or a non-targeting miRNA control were incubated with increasing concentrations of cisplatin.

[3] = test system: ovarian cancer cell lines; test: Cisplatin IC50 in multiple ovarian cancer cell lines; format: cell-based, human; conditions: OVCAR8 and SKOV3ip1 cells, p<0.001
Procedure: as §1, with “Rates of proliferation and apoptosis were examined in stable transfectants 24, 48, 72 and 96 hours after selected cells had been passaged and dispensed into 96 well plates.” left out, “Cisplatin was obtained from Teva Pharmaceuticals (Irvine, Calif.).” left out

HEY cells [4] = test: Proliferation assay; format: cell-based, human; conditions: mimic transfection
Procedure: as §1

HEYA8 cells [5] = test: Proliferation assay; format: cell-based, human; conditions: HEYA8, acute mimic transfection
Procedure: as §1

OVCAR5 [6] = test: Proliferation assay; format: cell-based, human; conditions: OVCAR5, mimic transfection
Procedure: as §1

HEY cells [7] = test: Apoptosis assay (Caspase Glo 3/7); format: cell-based, human; conditions: mimic transfection
Procedure: as §1

HEYA8 cells [8] = test: Apoptosis assay (Caspase Glo 3/7); format: cell-based, human; conditions: HEYA8, acute mimic transfection
Procedure: as §1

OVCAR5 [9] = test: Apoptosis assay (Caspase Glo 3/7); format: cell-based, human; conditions: OVCAR5, mimic transfection
Procedure: as §1

OVCAR8 cells [10] = test: Apoptosis assay (Caspase Glo 3/7); format: cell-based, human
Procedure: as §1

SKOV3ip1 cells [11] = test: Apoptosis assay (Caspase Glo 3/7); format: cell-based, human
Procedure: as §1

OVCAR8 xenografts [12] = test: Subcutaneous ovarian cancer xenograft; format: in vivo, mice; conditions: subcutaneous inoculation vs non-targeting control or empty vector
OVCAR8 xenografts [13] = test: Survival and tumor response of xenografted mice treated with cisplatin; format: in vivo
Procedure: Permission to perform animal experiments was obtained from the Institutional Animal Care and Use Committee (IACUC) for Baylor College of Medicine. Eight-week female athymic (Foxn1^nu/nu) mice were purchased from the National Cancer Institute-Charles River and maintained on a standard diet ad lib. Each animal was inoculated intraperitoneally with 2.5×10^6 cells stably transfected with vector driving miR-520h, a non-targeting miRNA control or empty vector. Expression of miR-520h was measured in cell lines using Taqman assays immediately prior to inoculation. Tumor xenografts were followed weekly for tumor progression or regression using the Image Station In-Vivo FX system (Kodak Molecular Imaging Systems, New Haven, Conn.) using endogenous RFP encoded by the pLemiR vector as a tag. At each time point, mice were anesthetized with isoflurane and placed in an imaging chamber, after which, fluorescent intensity images with x-ray overlay were obtained and analyzed. At the completion of the study, mice were euthanized after sedation under isoflurane (Abbott Laboratories, North Chicago, Ill.). For experiments involving treatment, cisplatin was administered at 5 mg/kg to mice by tail vein injection weekly for 4 weeks, after which, 1.5 mg/kg was administered biweekly. Tumor volume and distribution for all animals in each experiment were documented and correlated with imaging results.
To determine whether expression of miR-520h impacted responses of ovarian cancer xenografts to systemically administered chemotherapy, the inventors inoculated Fox1nu/nu mice with 4×10^6 OVCAR8 cells stably expressing either miR-520h mimic, a non-targeting mimic control or empty vector. Once tumor implants were readily palpable, weekly administration of cisplatin equivalent to a dose of 5 mg/kg was initiated and given weekly for a total of 4 weeks. This course of treatment was specifically used to mimic the typical course experienced by women undergoing treatment for this illness. […] This observation is consistent with a sensitization of ovarian cancer cells to cisplatin by miR-520h mimic. Cisplatin was continued approximately biweekly at a reduced dose of 1.5 mg/kg until disease progression requiring euthanasia of animals by IACUC criteria. […] In contrast, median survival for animals xenografted with OVCAR8 cells stably transfected with empty vector or OVCAR8 cells stably expressing non-targeting microRNA control was 79 days and 90 days, respectively.

OVCAR8 cells [14] = test: Spheroid formation; format: cell-based, human; conditions: cells stably expressing mimics

B1: hsa-mir-520h MI0003175 (nucleic acid, listed as Homo sapiens)
chain: UCCCAUGCUGUGACCCUCUAGAGGAAGCACUUUCUGUUUGUUGUCUGAGAAAAAACAAAGUGCUUCCCUUUAGAGUUACUGUUUGGGA
modifications: expressed or natural sequence
notes: synthetic mimic or stably expressed from pLemiR vector; written miR-520g/h interchangeably
Sensitization to cisplatin (viability) (OVCAR8 cells [1]): significantly sensitized | Sensitization to cisplatin (viability) (OVCAR8 cells [1]; listed as miR-520g/h): sensitized | Sensitization to cisplatin (viability) (SKOV3ip1 cells [2]): significantly sensitized | Sensitization to cisplatin (viability) (SKOV3ip1 cells [2]; listed as miR-520g/h): appeared to sensitize | Reduction of IC50 for cisplatin (UPSC Ark1 cells): more than 90% | Reduction of IC50 for cisplatin [3]: ≤ 4 fold | Proliferation (HEY cells [4]): no impact | Proliferation (HEYA8 cells [5]): no significant impact | Proliferation (OVCAR5 [6]): no impact | Apoptosis (HEY cells [7]): no impact | Apoptosis (HEYA8 cells [8]): increase rates of apoptosis | Apoptosis (OVCAR5 [9]): no impact | Caspase 3/7 expression (OVCAR8 cells [10]; OVCAR8 clones stably expressing the microRNA, no cisplatin): inhibited | Apoptosis in presence of cisplatin (OVCAR8 cells [10]; OVCAR8 stable clones, cisplatin up to 10 μg/mL, listed as miR-520g/h): significantly decreased; also recorded: significantly lower rates of apoptosis | Apoptosis (caspase 3/7) (SKOV3ip1 cells [11]; SKOV3ip1, acute mimic transfection, no cisplatin): decreasing apoptosis | Caspase 3/7 expression (SKOV3ip1 cells [11]; SKOV3ip1 clones stably expressing the microRNA, no cisplatin): inhibited | Apoptosis in presence of cisplatin (SKOV3ip1 cells [11]; SKOV3ip1 stable clones, cisplatin treatment): significantly increased | Implant size total tumor burden (OVCAR8 xenografts [12]): significantly smaller | Mean survival (OVCAR8 xenografts [13]; 4×10^6 OVCAR8 cells, cisplatin 5 mg/kg weekly 4 weeks then 1.5 mg/kg biweekly): 114 days | Mean survival (OVCAR8 xenografts [13]; biweekly maintenance IV regimen of 5 mg/m^2 cisplatin): 130 days | Xenograft response to cisplatin regimen (OVCAR8 xenografts [13]; cisplatin 5 mg/kg weekly for 4 weeks): nearly complete elimination of disease | Increase in survival vs empty vector control (OVCAR8 xenografts [13]; cisplatin-treated xenografted animals): ~44% | Median survival (OVCAR8 xenografts [13]; mice xenografted with 2.5×10^6 OVCAR8 cells expressing the mimic, cisplatin doses, controls 90 and 79 days): 113 days | Implant size at necropsy (OVCAR8 xenografts [13]; vs non-targeting mimic control or empty vector): significantly smaller | Capacity to form spheroids (OVCAR8 cells [14]): decreased capacity to form spheroids
